This assay has as its target T1, myc-tagged TRIM25 WT (tripartite motif-containing protein 25) (UniProt Q14258 1-630).
T1 construct: tripartite motif-containing protein 25 (TRIM25), ubiquitin E3 ligase; full-length TRIM25 provided by J. U. Jung (Gack et al., 2007); source: ZAP KO 293T or TRIM25 KO 293T cells, transfected (pcDNA3.1-myc), in lysate; not shown: myc, N-terminal, kept
Description: co-IP; myc IP (anti-myc beads) of myc-TRIM25 WT from lysates of ZAP KO 293T cells co-transfected with FLAG-ZAPS or FLAG-ZAPL WT or mutants; FLAG-ZAP detected by immunoblot; FLAG IP buffer (100 mM Tris-HCl 8.0, 150 mM NaCl, 5 mM EDTA, 1 mM DTT, 5% glycerol, 0.1% NP-40), 4°C, 45 min; FLAG IP band divided by myc IP band (ImageJ). The note with it: partners not purified. (In general: A western blot detects proteins with antibodies after separation by electrophoresis.)

T1 sequence (Q14258 whole entry): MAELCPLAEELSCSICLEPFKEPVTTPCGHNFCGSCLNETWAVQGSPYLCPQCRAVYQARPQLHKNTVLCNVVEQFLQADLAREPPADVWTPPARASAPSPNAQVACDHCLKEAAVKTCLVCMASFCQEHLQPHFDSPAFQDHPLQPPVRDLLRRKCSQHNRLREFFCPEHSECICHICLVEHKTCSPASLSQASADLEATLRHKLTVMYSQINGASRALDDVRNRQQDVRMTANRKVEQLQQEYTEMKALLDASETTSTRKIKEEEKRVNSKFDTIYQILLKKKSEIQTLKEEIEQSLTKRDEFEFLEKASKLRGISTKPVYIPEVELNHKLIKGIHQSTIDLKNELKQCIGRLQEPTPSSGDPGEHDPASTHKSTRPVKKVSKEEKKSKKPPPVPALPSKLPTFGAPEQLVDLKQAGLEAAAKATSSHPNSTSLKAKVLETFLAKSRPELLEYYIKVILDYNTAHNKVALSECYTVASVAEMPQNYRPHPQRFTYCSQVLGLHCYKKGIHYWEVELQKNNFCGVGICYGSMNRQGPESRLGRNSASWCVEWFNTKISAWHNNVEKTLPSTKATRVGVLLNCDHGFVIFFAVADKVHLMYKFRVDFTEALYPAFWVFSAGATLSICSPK

B1: FLAG-tagged ZAPS C88R (ZnF 2 mutant) (natural protein, human, UniProt Q7Z2W4-2 1-699, looked up)
chain: MADPEVCCFITKILCAHGGRMALDALLQEIALSEPQLCEVLQVAGPDRFVVLETGGEAGITRSVVATTRARVCRRKYCQRPCDNLHLRKLNLLGRCNYSQSERNLCKYSHEVLSEENFKVLKNHELSGLNKEELAVLLLQSDPFFMPEICKSYKGEGRQQICNQQPPCSRLHICDHFTRGNCRFPNCLRSHNLMDRKVLAIMREHGLNPDVVQNIQDICNSKHMQKNPPGPRAPSSHRRNMAYRARSKSRDRFFQGSQEFLASASASAERSCTPSPDQISHRASLEDAPVDDLTRKFTYLGSQDRARPPSGSSKATDLGGTSQAGTSQRFLENGSQEDLLHGNPGSTYLASNSTSAPNWKSLTSWTNDQGARRKTVFSPTLPAARSSLGSLQTPEAVTTRKGTGLLSSDYRIINGKSGTQDIQPGPLFNNNADGVATDITSTRSLNYKSTSSGHREISSPRIQDAGPASRDVQATGRIADDADPRVALVNDSLSDVTSTTSSRVDDHDSEEICLDHLCKGCPLNGSCSKVHFHLPYRWQMLIGKTWTDFEHMETIEKGYCNPGIHLCSVGSYTINFRVMSCDSFPIRRLSTPSSVTKPANSVFTTKWIWYWKNESGTWIQYGEEKDKRKNSNVDSSYLESLYQSCPRGVVPFQAGSRNYELSFQGMIQTNIASKTQKDVIRRPTFVPQWYVQQMKRGPE
notes: zinc finger antiviral protein (ZAP), short isoform ZAPS, cloned from pTRIP-TagRFP-hZAPS; source: ZAP KO 293T cells, transfected (pcDNA3.1-3XFLAG), in lysate; not shown: 3XFLAG, N-terminal, kept
For B1, the “ZAP-TRIM25 interaction (co-IP, FLAG-ZAP band over myc-TRIM25 band, ImageJ)” value amounted to 0.45.

B2: FLAG-tagged ZAPS K107A/Y108A (natural protein, human, UniProt Q7Z2W4-2 1-699, looked up)
chain: MADPEVCCFITKILCAHGGRMALDALLQEIALSEPQLCEVLQVAGPDRFVVLETGGEAGITRSVVATTRARVCRRKYCQRPCDNLHLCKLNLLGRCNYSQSERNLCAASHEVLSEENFKVLKNHELSGLNKEELAVLLLQSDPFFMPEICKSYKGEGRQQICNQQPPCSRLHICDHFTRGNCRFPNCLRSHNLMDRKVLAIMREHGLNPDVVQNIQDICNSKHMQKNPPGPRAPSSHRRNMAYRARSKSRDRFFQGSQEFLASASASAERSCTPSPDQISHRASLEDAPVDDLTRKFTYLGSQDRARPPSGSSKATDLGGTSQAGTSQRFLENGSQEDLLHGNPGSTYLASNSTSAPNWKSLTSWTNDQGARRKTVFSPTLPAARSSLGSLQTPEAVTTRKGTGLLSSDYRIINGKSGTQDIQPGPLFNNNADGVATDITSTRSLNYKSTSSGHREISSPRIQDAGPASRDVQATGRIADDADPRVALVNDSLSDVTSTTSSRVDDHDSEEICLDHLCKGCPLNGSCSKVHFHLPYRWQMLIGKTWTDFEHMETIEKGYCNPGIHLCSVGSYTINFRVMSCDSFPIRRLSTPSSVTKPANSVFTTKWIWYWKNESGTWIQYGEEKDKRKNSNVDSSYLESLYQSCPRGVVPFQAGSRNYELSFQGMIQTNIASKTQKDVIRRPTFVPQWYVQQMKRGPE
notes: zinc finger antiviral protein (ZAP), short isoform ZAPS, cloned from pTRIP-TagRFP-hZAPS; also called ZAPS KY; KY; source: ZAP KO 293T cells, transfected (pcDNA3.1-3XFLAG), in lysate; not shown: 3XFLAG, N-terminal, kept
On to B2, for which the “ZAP-TRIM25 interaction (co-IP, FLAG-ZAP band over myc-TRIM25 band, ImageJ)” value is 0.33.

B3: FLAG-tagged ZAPS H176A/F184A/R189A (natural protein, human, UniProt Q7Z2W4-2 1-699, looked up)
chain: MADPEVCCFITKILCAHGGRMALDALLQEIALSEPQLCEVLQVAGPDRFVVLETGGEAGITRSVVATTRARVCRRKYCQRPCDNLHLCKLNLLGRCNYSQSERNLCKYSHEVLSEENFKVLKNHELSGLNKEELAVLLLQSDPFFMPEICKSYKGEGRQQICNQQPPCSRLHICDAFTRGNCRAPNCLASHNLMDRKVLAIMREHGLNPDVVQNIQDICNSKHMQKNPPGPRAPSSHRRNMAYRARSKSRDRFFQGSQEFLASASASAERSCTPSPDQISHRASLEDAPVDDLTRKFTYLGSQDRARPPSGSSKATDLGGTSQAGTSQRFLENGSQEDLLHGNPGSTYLASNSTSAPNWKSLTSWTNDQGARRKTVFSPTLPAARSSLGSLQTPEAVTTRKGTGLLSSDYRIINGKSGTQDIQPGPLFNNNADGVATDITSTRSLNYKSTSSGHREISSPRIQDAGPASRDVQATGRIADDADPRVALVNDSLSDVTSTTSSRVDDHDSEEICLDHLCKGCPLNGSCSKVHFHLPYRWQMLIGKTWTDFEHMETIEKGYCNPGIHLCSVGSYTINFRVMSCDSFPIRRLSTPSSVTKPANSVFTTKWIWYWKNESGTWIQYGEEKDKRKNSNVDSSYLESLYQSCPRGVVPFQAGSRNYELSFQGMIQTNIASKTQKDVIRRPTFVPQWYVQQMKRGPE
notes: zinc finger antiviral protein (ZAP), short isoform ZAPS, cloned from pTRIP-TagRFP-hZAPS; also called ZAPS HFR; HFR; source: ZAP KO 293T cells, transfected (pcDNA3.1-3XFLAG), in lysate; not shown: 3XFLAG, N-terminal, kept
B3: the “ZAP-TRIM25 interaction (co-IP, FLAG-ZAP band over myc-TRIM25 band, ImageJ)” value worked out at 0.205.

B4: FLAG-tagged ZAPS C96A/Y98A (natural protein, human, UniProt Q7Z2W4-2 1-699, looked up)
chain: MADPEVCCFITKILCAHGGRMALDALLQEIALSEPQLCEVLQVAGPDRFVVLETGGEAGITRSVVATTRARVCRRKYCQRPCDNLHLCKLNLLGRANASQSERNLCKYSHEVLSEENFKVLKNHELSGLNKEELAVLLLQSDPFFMPEICKSYKGEGRQQICNQQPPCSRLHICDHFTRGNCRFPNCLRSHNLMDRKVLAIMREHGLNPDVVQNIQDICNSKHMQKNPPGPRAPSSHRRNMAYRARSKSRDRFFQGSQEFLASASASAERSCTPSPDQISHRASLEDAPVDDLTRKFTYLGSQDRARPPSGSSKATDLGGTSQAGTSQRFLENGSQEDLLHGNPGSTYLASNSTSAPNWKSLTSWTNDQGARRKTVFSPTLPAARSSLGSLQTPEAVTTRKGTGLLSSDYRIINGKSGTQDIQPGPLFNNNADGVATDITSTRSLNYKSTSSGHREISSPRIQDAGPASRDVQATGRIADDADPRVALVNDSLSDVTSTTSSRVDDHDSEEICLDHLCKGCPLNGSCSKVHFHLPYRWQMLIGKTWTDFEHMETIEKGYCNPGIHLCSVGSYTINFRVMSCDSFPIRRLSTPSSVTKPANSVFTTKWIWYWKNESGTWIQYGEEKDKRKNSNVDSSYLESLYQSCPRGVVPFQAGSRNYELSFQGMIQTNIASKTQKDVIRRPTFVPQWYVQQMKRGPE
notes: zinc finger antiviral protein (ZAP), short isoform ZAPS, cloned from pTRIP-TagRFP-hZAPS; also called ZAPS CY; CY; source: ZAP KO 293T cells, transfected (pcDNA3.1-3XFLAG), in lysate; not shown: 3XFLAG, N-terminal, kept
As to B4, the “ZAP-TRIM25 interaction (co-IP, FLAG-ZAP band over myc-TRIM25 band, ImageJ)” value turned out to be 0.55.

B5: FLAG-tagged ZAPS E148A/K151A/R170A (natural protein, human, UniProt Q7Z2W4-2 1-699, looked up)
chain: MADPEVCCFITKILCAHGGRMALDALLQEIALSEPQLCEVLQVAGPDRFVVLETGGEAGITRSVVATTRARVCRRKYCQRPCDNLHLCKLNLLGRCNYSQSERNLCKYSHEVLSEENFKVLKNHELSGLNKEELAVLLLQSDPFFMPAICASYKGEGRQQICNQQPPCSALHICDHFTRGNCRFPNCLRSHNLMDRKVLAIMREHGLNPDVVQNIQDICNSKHMQKNPPGPRAPSSHRRNMAYRARSKSRDRFFQGSQEFLASASASAERSCTPSPDQISHRASLEDAPVDDLTRKFTYLGSQDRARPPSGSSKATDLGGTSQAGTSQRFLENGSQEDLLHGNPGSTYLASNSTSAPNWKSLTSWTNDQGARRKTVFSPTLPAARSSLGSLQTPEAVTTRKGTGLLSSDYRIINGKSGTQDIQPGPLFNNNADGVATDITSTRSLNYKSTSSGHREISSPRIQDAGPASRDVQATGRIADDADPRVALVNDSLSDVTSTTSSRVDDHDSEEICLDHLCKGCPLNGSCSKVHFHLPYRWQMLIGKTWTDFEHMETIEKGYCNPGIHLCSVGSYTINFRVMSCDSFPIRRLSTPSSVTKPANSVFTTKWIWYWKNESGTWIQYGEEKDKRKNSNVDSSYLESLYQSCPRGVVPFQAGSRNYELSFQGMIQTNIASKTQKDVIRRPTFVPQWYVQQMKRGPE
notes: zinc finger antiviral protein (ZAP), short isoform ZAPS, cloned from pTRIP-TagRFP-hZAPS; also called ZAPS EKR; EKR; source: ZAP KO 293T cells, transfected (pcDNA3.1-3XFLAG), in lysate; not shown: 3XFLAG, N-terminal, kept
Consider B5, for which the “ZAP-TRIM25 interaction (co-IP, FLAG-ZAP band over myc-TRIM25 band, ImageJ)” value was 0.189.

B6: FLAG-tagged ZAPS V72A/Y108A/F144A (natural protein, human, UniProt Q7Z2W4-2 1-699, looked up)
chain: MADPEVCCFITKILCAHGGRMALDALLQEIALSEPQLCEVLQVAGPDRFVVLETGGEAGITRSVVATTRARACRRKYCQRPCDNLHLCKLNLLGRCNYSQSERNLCKASHEVLSEENFKVLKNHELSGLNKEELAVLLLQSDPAFMPEICKSYKGEGRQQICNQQPPCSRLHICDHFTRGNCRFPNCLRSHNLMDRKVLAIMREHGLNPDVVQNIQDICNSKHMQKNPPGPRAPSSHRRNMAYRARSKSRDRFFQGSQEFLASASASAERSCTPSPDQISHRASLEDAPVDDLTRKFTYLGSQDRARPPSGSSKATDLGGTSQAGTSQRFLENGSQEDLLHGNPGSTYLASNSTSAPNWKSLTSWTNDQGARRKTVFSPTLPAARSSLGSLQTPEAVTTRKGTGLLSSDYRIINGKSGTQDIQPGPLFNNNADGVATDITSTRSLNYKSTSSGHREISSPRIQDAGPASRDVQATGRIADDADPRVALVNDSLSDVTSTTSSRVDDHDSEEICLDHLCKGCPLNGSCSKVHFHLPYRWQMLIGKTWTDFEHMETIEKGYCNPGIHLCSVGSYTINFRVMSCDSFPIRRLSTPSSVTKPANSVFTTKWIWYWKNESGTWIQYGEEKDKRKNSNVDSSYLESLYQSCPRGVVPFQAGSRNYELSFQGMIQTNIASKTQKDVIRRPTFVPQWYVQQMKRGPE
notes: zinc finger antiviral protein (ZAP), short isoform ZAPS, cloned from pTRIP-TagRFP-hZAPS; also called ZAPS VYF; VYF; source: ZAP KO 293T cells, transfected (pcDNA3.1-3XFLAG), in lysate; not shown: 3XFLAG, N-terminal, kept
B6: the “ZAP-TRIM25 interaction (co-IP, FLAG-ZAP band over myc-TRIM25 band, ImageJ)” value was determined as 0.792.

B7: FLAG-tagged ZAPL C96A/Y98A (natural protein, human, UniProt Q7Z2W4-1 1-902, looked up)
chain: MADPEVCCFITKILCAHGGRMALDALLQEIALSEPQLCEVLQVAGPDRFVVLETGGEAGITRSVVATTRARVCRRKYCQRPCDNLHLCKLNLLGRANASQSERNLCKYSHEVLSEENFKVLKNHELSGLNKEELAVLLLQSDPFFMPEICKSYKGEGRQQICNQQPPCSRLHICDHFTRGNCRFPNCLRSHNLMDRKVLAIMREHGLNPDVVQNIQDICNSKHMQKNPPGPRAPSSHRRNMAYRARSKSRDRFFQGSQEFLASASASAERSCTPSPDQISHRASLEDAPVDDLTRKFTYLGSQDRARPPSGSSKATDLGGTSQAGTSQRFLENGSQEDLLHGNPGSTYLASNSTSAPNWKSLTSWTNDQGARRKTVFSPTLPAARSSLGSLQTPEAVTTRKGTGLLSSDYRIINGKSGTQDIQPGPLFNNNADGVATDITSTRSLNYKSTSSGHREISSPRIQDAGPASRDVQATGRIADDADPRVALVNDSLSDVTSTTSSRVDDHDSEEICLDHLCKGCPLNGSCSKVHFHLPYRWQMLIGKTWTDFEHMETIEKGYCNPGIHLCSVGSYTINFRVMSCDSFPIRRLSTPSSVTKPANSVFTTKWIWYWKNESGTWIQYGEEKDKRKNSNVDSSYLESLYQSCPRGVVPFQAGSRNYELSFQGMIQTNIASKTQKDVIRRPTFVPQWYVQQMKRGPDHQPAKTSSVSLTATFRPQEDFCFLSSKKYKLSEIHHLHPEYVRVSEHFKASMKNFKIEKIKKIENSELLDKFTWKKSQMKEEGKLLFYATSRAYVESICSNNFDSFLHETHENKYGKGIYFAKDAIYSHKNCPYDAKNVVMFVAQVLVGKFTEGNITYTSPPPQFDSCVDTRSNPSVFVIFQKDQVYPQYVIEYTEDKACVIS
notes: zinc finger antiviral protein (ZAP), long isoform ZAPL, cloned from pTRIP-TagRFP-hZAPL; also called ZAPL CY; CY; source: ZAP KO 293T cells, transfected (pcDNA3.1-3XFLAG), in lysate; not shown: 3XFLAG, N-terminal, kept
For B7, the “ZAP-TRIM25 interaction (co-IP, FLAG-ZAP band over myc-TRIM25 band, ImageJ)” value turned out to be 0.329.

The values are drawn from article PMC9253567, “The Role of ZAP and TRIM25 RNA Binding in Restricting Viral Translation” (Frontiers in Cellular and Infection Microbiology, 2022).
